Measurements from patent publication US20090304687A1, “METHODS OF USING CD40 BINDING AGENTS” (Seattle Genetics , Inc., priority 2005, published 2009).
“Also recorded” adds a separate entry of the source.

Legend:
Ramos cells [1] = assay: In vitro signaling in Ramos cells, western blot; assay type: cell-based; settings: 2% serum, antibody cross-linked with anti-human IgG, 15 min
Description: Humanized anti-CD40 antibody (Hu sgn-0; also referred to as SGN-40) binding to CD40^+ NHL cells activates signaling through the ERK1/2 MAP Kinase, p38 MAP Kinase, and NFkB pathways. Ramos cells (cultured in 2% serum) were stimulated with the humanized CD40 antibody cross-linked (XL) with anti-human IgG for 15 min. Activation of signaling was detected by western blot analysis with antibodies recognizing phosphorylation of ERK1/2 (Thr202/Tyr204), p38 (ThrlSO/Tyr182), and AKT (Ser473). NFkB activation was detected by measuring the degradation of IkB-a protein.

Ramos cells [2] = assay: Bid upregulation and PARP/caspase-3 cleavage in Ramos cells, western blot; assay type: cell-based
Description: In a further study, Ramos cells (2% FBS) were treated with cross-linked humanized CD40 antibody or control hIgG over a 72 hr time course ([…]). Normalized protein extracts were analyzed by western blotting analysis for the pro-apoptotic Bcl-2 family member Bid. […] Referring to FIG. 3B, degradation of the caspase-3/7 substrate poly(ADP-ribose) polymerase (cleaved-PARP) was monitored over time by western blotting with an antibody recognizing PARP cleaved at Asp214. Consistent with the apoptosis-inducing activity of the humanized CD40 antibody, cleavage of caspase-3 and its downstream substrate poly (ADP-ribose) polymerase was detected in NHL cell lines. Antibody-mediated signaling was qualitatively similar to that mediated by trimeric recombinant humanized CD40 ligand (rhCD40L) (data not shown). However, the overall magnitude of signaling was lower with the humanized CD40 antibody compared to rhCD40L, consistent with the partial agonistic properties of SGN-40.

Ramos cells [3] = assay: In vitro drug combinations with SGN-40, 3H-thymidine proliferation, Combination Index; assay type: cell-based
Description: Cells were treated for 72 hours, then labeled with ^3H-thymidine for 4 hours to measure proliferation rates. Dose response curves of drugs alone and in combination with the humanized CD40 antibody were reduced in Excel, and Combination Indices (CI) determined using the Calcusyn analysis package (Biosoft). […] CI values equal to 1.0 indicate an additive integration. For these studies, n=3 unless otherwise indicated.

Ramos tumor cells [4] = assay: SCID mouse lymphoma xenograft model, subcutaneous Ramos tumor growth; assay type: in vivo, SCID mice; settings: 4 mg/kg/dose i.p. 3 times per week, start 13 days after implant, 14-day study period
Description: The anti-tumor activity of the humanized CD40 antibody was assayed in a SCID mouse lymphoma xenograft model. Five million Ramos tumor cells were injected subcutaneously into SCID mice (10/group) thirteen days prior to starting drug treatment. Murine CD40 antibody or the humanized S2C6 was given intra-peritoneally 3 times per week (4 mg/kg/dose) with 8 or 5 doses administered. Mice were examined for tumor growth, and tumor volume was measured weekly during the 14-day study period. The results in FIG. 4 show a nearly 9-fold increase in the growth of tumors in control mice, whereas over the same time period, tumor growth in mice treated with either murine CD40 antibody or humanized S2C6 was negligible.

Ramos tumor cells [5] = assay: SCID mouse lymphoma xenograft model, intravenous Ramos cells, survival; assay type: in vivo; settings: 4 mg/kg/dose i.p. two times per week, five doses, 10 mice/group
Description: The efficacy of the humanized CD40 antibody on survival of tumor-bearing mice was assayed in a SCID mouse lymphoma xenograft model. SCID mice (10/group) were inoculated intravenously with one million Ramos tumor cells three days prior to antibody treatment. Mice were treated with murine or humanized CD40 antibody, or an Ig control, administered intraperitoneally two times per week (4 mg/kg/dose) for a total of five doses. The mouse cages were examined daily for mortality.

IM-9 cells = assay: IM-9 disseminated xenograft model, survival; assay type: in vivo, SCID mice; settings: data not shown
Description: Briefly IM-9 cells (1×10^6 per mouse) were introduced intravenously into SCID mice in a disseminated xenograft model. Animals were treated 3 days post tumor cell injection with either SGN-40(4.0 mg/kg, q2d x9, ip) or prednisone (0.15 mg/kg, qld x5, po) alone, or in combination. Survival data was plotted using a Kaplan-Meier curve (data not shown).

[6] = Phase I escalated dosing study in multiple myeloma patients, adverse events; assay type: in vivo, human
Description: An open-label, multi-dose, single arm, Phase I protocol initiated at five clinical sites. Initially, enrolled patients, diagnosed with multiple myeloma, received weekly intravenous infusions of a humanized CD40 antibody (hu sgn-0) with a cohort-specific dose level of 0.5, 1, 2 and 4 mg/kg/wk. […] Cohort specific doses of 3, 4, 6 and 8 mg/kg/week were used. The patient eligibility criteria included: patients must have failed at least two prior systemic therapies; at least four weeks since chemotherapy; patients who experience a minimal response (MR) or greater are eligible for a second cycle of therapy.
Patients were monitored for adverse events. […] The drug-loading period reduced the first-dose cytokine release syndrome.

[7] = Pharmacokinetics of SGN-40 in patients with multiple myeloma; assay type: in vivo, human; settings: for AUC0-50: Days 0 to 50, 1 compartment model fit; for T ½: after the last infusion, 1 compartment model fit; for Day 36 Cmin: trough 7 days after last dose; for Day 29 Cmax: serum, after last dose, mean ± SD
Description: The humanized CD40 antibody, SGN-40, was administered twice during the first week and once a week […] for the next 4 weeks to patients with multiple myeloma. […] The peak serum concentration (Cmax) of SGN-40 observed following the last dose on Day 29 and the subsequent trough levels 7 days later on Day 36 are shown for each cohort in Table 6. […] (n/a means not applicable.) […] Data are presented as the mean±standard deviation (N>3) with the exception of Cohort I Day 36 Cmin (N=2), and Cohort II, T1/2 and AUC0-50 (N-1). The patients maintained a plasma SGN-40 concentration of at least about 10 micrograms/ml.

[8] = target: CD40 immobilized on microassay plates (UniProt P25942 21-193, limits assumed); assay: serially diluted antibody on CD40 immobilized on microassay plates
Chain of CD40 immobilized on microassay plates (P25942 21-193 limits assumed): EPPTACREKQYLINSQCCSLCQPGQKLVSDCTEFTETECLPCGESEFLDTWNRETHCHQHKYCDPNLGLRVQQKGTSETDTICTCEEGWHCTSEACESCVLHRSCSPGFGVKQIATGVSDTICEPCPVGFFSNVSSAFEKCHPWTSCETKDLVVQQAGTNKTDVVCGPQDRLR
Description: Antibodies constructed using these variant light and heavy chain variable domains were analyzed for binding activity. Each antibody was diluted to equivalent concentrations, and then serially diluted. The diluted antibodies were assayed for binding to CD40 immobilized on microassay plates.

CD40 = CD40 (Homo sapiens, UniProt P25942); assay: Binding of variant antibodies to CD40 immobilized on microassay plates; design: Binding Data 1 / Binding Data 2 / Binding Data 3: unit not given here
Chain of CD40 (P25942 21-277): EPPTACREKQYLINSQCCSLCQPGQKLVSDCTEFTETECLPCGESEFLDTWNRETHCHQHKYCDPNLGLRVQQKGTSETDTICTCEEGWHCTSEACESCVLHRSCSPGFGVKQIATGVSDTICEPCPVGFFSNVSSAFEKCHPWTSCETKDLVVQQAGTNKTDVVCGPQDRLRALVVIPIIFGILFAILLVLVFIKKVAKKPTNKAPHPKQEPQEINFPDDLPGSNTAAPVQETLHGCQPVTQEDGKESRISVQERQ
Description: Antibodies constructed using these variant light and heavy chain variable domains were analyzed for binding activity. Each antibody was diluted to equivalent concentrations, and then serially diluted. The diluted antibodies were assayed for binding to CD40 immobilized on microassay plates. Affinity binding data for the variant antibodies are shown below in Table 3.

human peripheral B cells = settings: Paulie et al., 1989; cited from earlier work
[9] = U.S. Pat. No. 6,838,261; cited from earlier work
CD40 and CD40L = CD40 and CD40L (Homo sapiens, UniProt P25942); settings: literature; cited from earlier work
Chain of CD40 and CD40L (P25942 21-277): as above

B1: hu sgn-0 (antibody, V domains shown)
VH: EVQLVESGGGLVQPGGSLRLSCAASGYSFTGYYIHWVRQAPGKGLEWVARVIPNNGGTSYNQKFKGRFTISRDNSKNTLYLQMNSLRAEDTAVYYCAREGIYWWGQGTLVTVS
VL: DIQMTQSPSSLSASVGDRVTITCRSSQSLVHSNGNTFLHWYQQKPGKAPKLLIYTVSNRFSGVPSRFSGSGSGTDFTLTISSLQPEDFATYYCSQTTHVPWTFGQGTKVEIKR
notes: also called SGN-40; Template
AKT signaling (Ramos cells [1]): modestly elevated | cleavage of caspase-3 and poly (ADP-ribose) polymerase (Ramos cells [2]; NHL cell lines, western blot): detected | Bid protein (Ramos cells [2]; Ramos cells 2% FBS, cross-linked antibody, 72 hr time course, 1.0 mg/ml mAb): upregulated Bid | overall magnitude of signaling compared to rhCD40L (Ramos cells [2]; data not shown): lower | effect on activity of chemotherapeutic agents (Ramos cells [3]): enhances the activity of several chemotherapeutic agents | tumor growth (Ramos tumor cells [4]): negligible | mice alive 90 days after tumor implant (Ramos tumor cells [5]): all ten | survival (IM-9 cells; SGN-40 4.0 mg/kg q2d x9 ip, 3 days post tumor cell injection): similarly effective in promoting survival | efficacy with or without prednisone (IM-9 cells; prednisone 0.15 mg/kg qld x5 po): essentially the same in the presence or absence of prednisone | symptoms of first dose-associated cytokine release after amended protocol (intra-patient dose escalation) ([6]; drug-loading period, Table 5 schema): markedly reduced | antitumor activity ([6]; low doses tested thus far, multiple myeloma patients): preliminary evidence for antitumor activity | TNF-alpha levels in the plasma ([6]; multiple myeloma patients): elevated following the first infusion only | cytokine release ([6]; multiple myeloma patients): appeared to trigger cytokine release | adverse event with the first dose ([6]; weekly i.v. infusion, 4 mg/kg level, multiple myeloma patients): Grade 3 cytokine release syndrome | AUC0-50 ([7]; Cohort I (1,1,2,3,3,3)): 653.93 ± 154.65 µg·days/mL | T ½ ([7]; Cohort I (1,1,2,3,3,3)): 64.1 ± 25.9 h | Day 36 Cmin ([7]; Cohort I (1,1,2,3,3,3), N=2): 9.94 µg/mL | Day 29 Cmax ([7]; Cohort I (Day 1/4/8/15/22/29: 1,1,2,3,3,3)): 45.40 ± 14.31 µg/mL | AUC0-50 ([7]; Cohort II (1,1,2,4,4,4)): 2086.02 µg·days/mL | T ½ ([7]; Cohort II (1,1,2,4,4,4)): 111 h | Day 36 Cmin ([7]; Cohort II (1,1,2,4,4,4)): 69.93 ± 14.08 µg/mL | Day 29 Cmax ([7]; Cohort II (Day 1/4/8/15/22/29: 1,1,2,4,4,4)): 143.00 ± 27.78 µg/mL | AUC0-50 ([7]; Cohort III (1,1,2,4,6,6)): 1988.88 ± 439.74 µg·days/mL | T ½ ([7]; Cohort III (1,1,2,4,6,6)): 92.4 ± 32.9 h | Day 36 Cmin ([7]; Cohort III (1,1,2,4,6,6)): 41.57 ± 19.22 µg/mL | Day 29 Cmax ([7]; Cohort III (Day 1/4/8/15/22/29: 1,1,2,4,6,6)): 149.25 ± 29.34 µg/mL | AUC0-50 ([7]; Cohort IV (1,1,2,4,6,8)): 3441.73 ± 1382.79 µg·days/mL | T ½ ([7]; Cohort IV (1,1,2,4,6,8)): 129 ± 44.2 h | Day 36 Cmin ([7]; Cohort IV (1,1,2,4,6,8)): 112.84 ± 50.40 µg/mL | Day 29 Cmax ([7]; Cohort IV (Day 1/4/8/15/22/29: 1,1,2,4,6,8)): 244.25 ± 96.00 µg/mL | plasma SGN-40 concentration maintained ([7]; multiple myeloma patients): at least 10 micrograms/ml | Binding Data 1 [8]: 75.3 | Binding Data 2 [8]: 75.3

B2: SGN-14: parent murine monoclonal CD40 antibody (donor), heavy SEQ ID NO: 1, light SEQ ID NO: 12; ATCC PTA-110 (antibody, V domains shown)
VH: EVQLQQSGPDLVKPGASVKISCKASGYSFTGYYIHWVKQSHGKSLEWIGRVIPNNGGTSYNQKFKGKAILTVDKSSSTAYMELRSLTSEDSAVYYCAREGIYWWGHGTTLTVS
VL: DVVVTQTPLSLPVSLGAQASISCRSSQSLVHSNGNTFLHWYLQKPGQSPKLLIYTVSNRFSGVPDRFSGSGSGTDFTLKISRVEAEDLGVYFCSQTTHVPWTFGGGTKLEIQR
modifications: MusMusculus
Binding Data 3 (CD40; affinity binding data, serially diluted antibody on immobilized CD40): 1.16 | binding activity compared with the parent murine antibody (CD40; in words): approaching that of the parent murine antibody; also recorded: more closely approaching that of the parent murine antibody | tumor growth (Ramos tumor cells [4]): negligible | mice alive 90 days after tumor implant (Ramos tumor cells [5]): eight of the ten | activity on human peripheral B cells (primary B cell proliferation) (human peripheral B cells): stimulate primary B cell proliferation in a dose dependent manner | anti-neoplastic activity in vivo [9]: anti-neoplastic activity in vivo | effect on the interaction between CD40 and CD40L (CD40 and CD40L): can increase the interaction between CD40 and CD40L
